Experimental data taken from the supplement of paper PMC10567573.

B1: C22orf15 (parent)
chain: ITQSWQVSVRVQPRGRAHLLPNPY
B2: TMEM40 (parent)
chain: YGETDFHKQDGKAGLFSQEQYERN

Variants of: B1
Assay: protein stability index of a GFP-peptide fusion (GPS, HEK-293T) (PSI 1-6); higher = more stable
Conditions: c terminus: a fixed tail appended
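Note: lentivirally expressed fusions sorted by FACS into six bins by GFP to DsRed ratio, PSI derived from sequencing read proportions per bin multiplied by bin number.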

Point of comparison: ITQSWQVSVRVQPTGRAHLLPNPY, protein stability index 1.05. Against it:
- ITQSWIVSVRVQPRGRAHLLPNPY — higher, 2.74
- ITQSWFVSVRVQPRGRAHLLPNPY — higher, 4.73
- ITQSWQVSVRVQPRGRAHLLVNPY — higher, 1.94
- ITQSWQVSVRVQPRGRAHLLYNPY — higher, 2.38
- ITQSWQVSVRVQPRGRYHLLPNPY — higher, 3.21
- ITQSWQVSVRVQPRGRPHLLPNPY — higher, 1.81
- ITQSWQVSVRIQPRGRAHLLPNPY — higher, 4.95
- ITQSWQVSVRVQPRGWAHLLPNPY — higher, 2.89
- ITQSWQVSVRVQPRGRAHLLPNRY — higher, 1.87
- ITQSWQVSVRVQPRGRAHLNPNPY — higher, 2.16
- ITQSWQVSVRVQPRGRAHLTPNPY — higher, 3.22
- ITQSWQVMVRVQPRGRAHLLPNPY — higher, 2.55
- ITQSWQVSPRVQPRGRAHLLPNPY — higher, 1.81
- IYQSWQVSVRVQPRGRAHLLPNPY — higher, 3.42
- IPQSWQVSVRVQPRGRAHLLPNPY — higher, 2.43
- ITQSWQVSVRVQPRGRAHVLPNPY — higher, 1.6
- ITQSWQVSVRVQPRGRAHQLPNPY — higher, 1.93
- ITQSWQVSVRVQPRKRAHLLPNPY — higher, 2.31
- ITQSWQVSVRVQPRRRAHLLPNPY — higher, 1.73
- ITYSWQVSVRVQPRGRAHLLPNPY — higher, 4.26
- ITSSWQVSVRVQPRGRAHLLPNPY — higher, 3.25
- ITTSWQVSVRVQPRGRAHLLPNPY — higher, 1.51
- PTQSWQVSVRVQPRGRAHLLPNPY — higher, 1.64

Variants of: B2
Assay: as above
Conditions: c terminus: a fixed tail appended

Point of comparison: YGETDFHCQDGKAGLFSQEQYERN, protein stability index 4.5. Against it:
- YGETDFHKPDGKAGLFSQEQYERN — lower, 3.56
- YGETDFHKGDGKAGLFSQEQYERN — lower, 3.73
- YGETDFHKFDGKAGLFSQEQYERN — lower, 3.38
- YGETDFHKMDGKAGLFSQEQYERN — lower, 3.17
- YGETDFHKEDGKAGLFSQEQYERN — higher, 4.78
- YGETDFHKADGKAGLFSQEQYERN — lower, 3.96
- YGETDFHKSDGKAGLFSQEQYERN — lower, 4.33
- YGETDFHKRDGKAGLFSQEQYERN — lower, 4.13
- YGETDFHKKDGKAGLFSQEQYERN — lower, 3.7
- YGETDFHKDDGKAGLFSQEQYERN — higher, 5.05
- YGETDFHKIDGKAGLFSQEQYERN — lower, 3.71
- YGETDFHKHDGKAGLFSQEQYERN — lower, 3.75
- YGETDFHKLDGKAGLFSQEQYERN — lower, 3.49
- YGETDFHKNDGKAGLFSQEQYERN — higher, 4.53
- YGETDFHGQDGKAGLFSQEQYERN — lower, 4.31
- YGETDFHWQDGKAGLFSQEQYERN — lower, 2.36
- YGETDFHPQDGKAGLFSQEQYERN — higher, 4.7
- YGETDFHFQDGKAGLFSQEQYERN — lower, 3.77
- YGETDFHNQDGKAGLFSQEQYERN — lower, 4.01
- YGETDFHIQDGKAGLFSQEQYERN — lower, 3.89
- YGETDFHDQDGKAGLFSQEQYERN — higher, 5.12
- YGETDFHQQDGKAGLFSQEQYERN — higher, 4.66
- YGETDFHEQDGKAGLFSQEQYERN — higher, 4.67
- YGETDFHHQDGKAGLFSQEQYERN — lower, 4.18
- YGETDFHLQDGKAGLFSQEQYERN — lower, 4.29
- YGETDFHVQDGKAGLFSQEQYERN — lower, 4.34
- YGETDFHMQDGKAGLFSQEQYERN — lower, 3.71
- YGETDFHSQDGKAGLFSQEQYERN — higher, 4.66
- YGETDFHYQDGKAGLFSQEQYERN — lower, 3.96
- YGETDFHAQDGKAGLFSQEQYERN — higher, 4.53
- YGETDFHTQDGKAGLFSQEQYERN — lower, 4.46
- YGETDFHRQDGKAGLFSQEQYERN — lower, 3.86
- YGETDFDKQDGKAGLFSQEQYERN — higher, 5.38
- YGETDFFKQDGKAGLFSQEQYERN — lower, 1.88
- YGETDFQKQDGKAGLFSQEQYERN — lower, 4.32
- YGETDFLKQDGKAGLFSQEQYERN — lower, 3.92
- YGETDFCKQDGKAGLFSQEQYERN — lower, 4.35
- YGETDFKKQDGKAGLFSQEQYERN — lower, 4.18
- YGETDFNKQDGKAGLFSQEQYERN — higher, 4.91
- YGETDFSKQDGKAGLFSQEQYERN — higher, 4.67
- YGETDFEKQDGKAGLFSQEQYERN — higher, 4.93
- YGETDFVKQDGKAGLFSQEQYERN — lower, 4.24
- YGETDFGKQDGKAGLFSQEQYERN — higher, 4.58
- YGETDFMKQDGKAGLFSQEQYERN — lower, 3.9
- YGETDFIKQDGKAGLFSQEQYERN — lower, 4.37
- YGETDFRKQDGKAGLFSQEQYERN — lower, 4.08
- YGETDFAKQDGKAGLFSQEQYERN — lower, 4.48
- YGETDFWKQDGKAGLFSQEQYERN — lower, 3.12
- YGETDFTKQDGKAGLFSQEQYERN — higher, 4.53
- YGETDFYKQDGKAGLFSQEQYERN — lower, 2.17
- YGETDFPKQDGKAGLFSQEQYERN — lower, 4.3
- YGETDHHKQDGKAGLFSQEQYERN — higher, 5.22
- YGETDIHKQDGKAGLFSQEQYERN — higher, 4.73
- YGETDWHKQDGKAGLFSQEQYERN — lower, 2.35
- YGETDDHKQDGKAGLFSQEQYERN — higher, 5.26
- YGETDYHKQDGKAGLFSQEQYERN — lower, 4.41
- YGETDKHKQDGKAGLFSQEQYERN — higher, 4.91
- YGETDPHKQDGKAGLFSQEQYERN — higher, 4.94
- YGETDVHKQDGKAGLFSQEQYERN — higher, 5.09
- YGETDMHKQDGKAGLFSQEQYERN — higher, 4.91
- YGETDAHKQDGKAGLFSQEQYERN — higher, 5.22
- YGETDNHKQDGKAGLFSQEQYERN — higher, 5
- YGETDRHKQDGKAGLFSQEQYERN — higher, 4.54
- YGETDTHKQDGKAGLFSQEQYERN — higher, 4.6
- YGETDQHKQDGKAGLFSQEQYERN — lower, 4.36
- YGETDEHKQDGKAGLFSQEQYERN — higher, 5.38
- YGETDGHKQDGKAGLFSQEQYERN — higher, 5.25
- YGETDSHKQDGKAGLFSQEQYERN — higher, 5.6
- YGETDCHKQDGKAGLFSQEQYERN — higher, 4.54
- YGETDLHKQDGKAGLFSQEQYERN — higher, 4.98
- YGETQFHKQDGKAGLFSQEQYERN — lower, 3.81
- YGETVFHKQDGKAGLFSQEQYERN — lower, 3.2
- YGETYFHKQDGKAGLFSQEQYERN — lower, 2.04
- YGETPFHKQDGKAGLFSQEQYERN — lower, 4.14
- YGETGFHKQDGKAGLFSQEQYERN — lower, 2.37
- YGETFFHKQDGKAGLFSQEQYERN — lower, 1.49
- YGETTFHKQDGKAGLFSQEQYERN — lower, 2.99
- YGETMFHKQDGKAGLFSQEQYERN — lower, 2.58
- YGETNFHKQDGKAGLFSQEQYERN — lower, 3.24
- YGETLFHKQDGKAGLFSQEQYERN — lower, 3.07
- YGETKFHKQDGKAGLFSQEQYERN — lower, 3.2
- YGETHFHKQDGKAGLFSQEQYERN — lower, 2.83
- YGETSFHKQDGKAGLFSQEQYERN — lower, 2.88
- YGETCFHKQDGKAGLFSQEQYERN — lower, 2.36
- YGETAFHKQDGKAGLFSQEQYERN — lower, 2.92
- YGETIFHKQDGKAGLFSQEQYERN — lower, 3.15
- YGETEFHKQDGKAGLFSQEQYERN — lower, 4.37
- YGETRFHKQDGKAGLFSQEQYERN — lower, 3.38
- QGETDFHKQDGKAGLFSQEQYERN — higher, 5.3
- PGETDFHKQDGKAGLFSQEQYERN — higher, 5.22
- KGETDFHKQDGKAGLFSQEQYERN — higher, 5.01
- EGETDFHKQDGKAGLFSQEQYERN — higher, 5.36
- WGETDFHKQDGKAGLFSQEQYERN — lower, 4.37
- AGETDFHKQDGKAGLFSQEQYERN — higher, 4.89
- DGETDFHKQDGKAGLFSQEQYERN — higher, 4.92
- RGETDFHKQDGKAGLFSQEQYERN — higher, 5.01
- GGETDFHKQDGKAGLFSQEQYERN — the same, 4.5
- NGETDFHKQDGKAGLFSQEQYERN — higher, 4.77
- MGETDFHKQDGKAGLFSQEQYERN — lower, 4.38
- TGETDFHKQDGKAGLFSQEQYERN — higher, 5.14
- SGETDFHKQDGKAGLFSQEQYERN — higher, 5.24
- HGETDFHKQDGKAGLFSQEQYERN — lower, 4.38
- FGETDFHKQDGKAGLFSQEQYERN — higher, 4.88
- CGETDFHKQDGKAGLFSQEQYERN — higher, 4.55
- IGETDFHKQDGKAGLFSQEQYERN — higher, 4.58
- LGETDFHKQDGKAGLFSQEQYERN — higher, 5.45
- YGSTDFHKQDGKAGLFSQEQYERN — lower, 1.98
- YGITDFHKQDGKAGLFSQEQYERN — lower, 3.9
- YGPTDFHKQDGKAGLFSQEQYERN — lower, 3.88
- YGNTDFHKQDGKAGLFSQEQYERN — lower, 2.46
- YGQTDFHKQDGKAGLFSQEQYERN — lower, 3.71
- YGGTDFHKQDGKAGLFSQEQYERN — lower, 2.36
- YGYTDFHKQDGKAGLFSQEQYERN — lower, 3.79
- YGLTDFHKQDGKAGLFSQEQYERN — lower, 4.08
- YGCTDFHKQDGKAGLFSQEQYERN — lower, 3.12
- YGVTDFHKQDGKAGLFSQEQYERN — lower, 4.38
- YGMTDFHKQDGKAGLFSQEQYERN — lower, 3.75
- YGTTDFHKQDGKAGLFSQEQYERN — lower, 3.61
- YGHTDFHKQDGKAGLFSQEQYERN — lower, 3.23
- YGWTDFHKQDGKAGLFSQEQYERN — lower, 3.49
- YGATDFHKQDGKAGLFSQEQYERN — lower, 3.92
- YGDTDFHKQDGKAGLFSQEQYERN — lower, 3.09
- YGRTDFHKQDGKAGLFSQEQYERN — lower, 3.85
- YGFTDFHKQDGKAGLFSQEQYERN — lower, 3.57
- YGKTDFHKQDGKAGLFSQEQYERN — lower, 3.55
- YFETDFHKQDGKAGLFSQEQYERN — higher, 4.61
- YQETDFHKQDGKAGLFSQEQYERN — lower, 3.67
- YKETDFHKQDGKAGLFSQEQYERN — higher, 4.68
- YIETDFHKQDGKAGLFSQEQYERN — lower, 2.65
- YMETDFHKQDGKAGLFSQEQYERN — lower, 3.92
- YHETDFHKQDGKAGLFSQEQYERN — lower, 3.47
- YCETDFHKQDGKAGLFSQEQYERN — lower, 3.42
- YYETDFHKQDGKAGLFSQEQYERN — higher, 4.57
- YTETDFHKQDGKAGLFSQEQYERN — lower, 4.11
- YVETDFHKQDGKAGLFSQEQYERN — lower, 1.6
- YPETDFHKQDGKAGLFSQEQYERN — higher, 4.95
- YAETDFHKQDGKAGLFSQEQYERN — lower, 3.49
- YLETDFHKQDGKAGLFSQEQYERN — lower, 4.46
- YDETDFHKQDGKAGLFSQEQYERN — higher, 4.95
- YWETDFHKQDGKAGLFSQEQYERN — lower, 3.62
- YEETDFHKQDGKAGLFSQEQYERN — higher, 5.38
- YSETDFHKQDGKAGLFSQEQYERN — higher, 4.56
- YNETDFHKQDGKAGLFSQEQYERN — higher, 4.78
- YRETDFHKQDGKAGLFSQEQYERN — higher, 4.66
- YGEHDFHKQDGKAGLFSQEQYERN — lower, 4.13
- YGEADFHKQDGKAGLFSQEQYERN — lower, 3.78
- YGEQDFHKQDGKAGLFSQEQYERN — lower, 4.14
- YGEYDFHKQDGKAGLFSQEQYERN — lower, 4.04
- YGEWDFHKQDGKAGLFSQEQYERN — lower, 3.28
- YGEKDFHKQDGKAGLFSQEQYERN — lower, 3.59
- YGEPDFHKQDGKAGLFSQEQYERN — lower, 3.62
- YGELDFHKQDGKAGLFSQEQYERN — lower, 3.69
- YGEGDFHKQDGKAGLFSQEQYERN — higher, 4.61
- YGESDFHKQDGKAGLFSQEQYERN — lower, 4.06
- YGEVDFHKQDGKAGLFSQEQYERN — lower, 4.14
- YGEDDFHKQDGKAGLFSQEQYERN — higher, 4.66
- YGECDFHKQDGKAGLFSQEQYERN — lower, 4.34
- YGEEDFHKQDGKAGLFSQEQYERN — higher, 4.83
- YGEFDFHKQDGKAGLFSQEQYERN — lower, 4.43
- YGENDFHKQDGKAGLFSQEQYERN — higher, 4.59
- YGEIDFHKQDGKAGLFSQEQYERN — lower, 4
- YGERDFHKQDGKAGLFSQEQYERN — lower, 3.33
- YGEMDFHKQDGKAGLFSQEQYERN — lower, 3.67
